# Results taken from PMC7902612 (2021).
# B1: GFP-BARD1^WT (natural protein)
# chain: MPDNRQPRNRQPRIRSGNEPRSAPAMEPDGRGAWAHSRAALDRLEKLLRCSRCTNILREPVCLGGCEHIFCSNCVSDCIGTGCPVCYTPAWIQDLKINRQLDSMIQLCSKLRNLLHDNELSDLKEDKPRKSLFNDAGNKKNSIKMWFSPRSKKVRYVVSKASVQTQPAIKKDASAQQDSYEFVSPSPPADVSERAKKASARSGKKQKKKTLAEINQKWNLEAEKEDGEFDSKEESKQKLVSFCSQPSVISSPQINGEIDLLASGSLTESECFGSLTEVSLPLAEQIESPDTKSRNEVVTPEKVCKNYLTSKKSLPLENNGKRGHHNRLSSPISKRCRTSILSTSGDFVKQTVPSENIPLPECSSPPSCKRKVGGTSGRKNSNMSDEFISLSPGTPPSTLSSSSYRRVMSSPSAMKLLPNMAVKRNHRGETLLHIASIKGDIPSVEYLLQNGSDPNVKDHAGWTPLHEACNHGHLKVVELLLQHKALVNTTGYQNDSPLHDAAKNGHVDIVKLLLSYGASRNAVNIFGLRPVDYTDDESMKSLLLLPEKNESSSASHCSVMNTGQRRDGPLVLIGSGLSSEQQKMLSELAVILKAKKYTEFDSTVTHVVVPGDAVQSTLKCMLGILNGCWILKFEWVKACLRRKVCEQEEKYEIPEGPRRSRLNREQLLPKLFDGCYFYLWGTFKHHPKDNLIKLVTAGGGQILSRKPKPDSDVTQTINTVAYHARPDSDQRFCTQYIIYEDLCNYHPERVRQGKVWKAPSSWFIDCVMSFELLPLDS
# Biological target: GST-BRCA1-N (N-terminal of BRCA1, 1-147 aa) (human, UniProt P38398 1-147)
# Sequence (P38398 1-147): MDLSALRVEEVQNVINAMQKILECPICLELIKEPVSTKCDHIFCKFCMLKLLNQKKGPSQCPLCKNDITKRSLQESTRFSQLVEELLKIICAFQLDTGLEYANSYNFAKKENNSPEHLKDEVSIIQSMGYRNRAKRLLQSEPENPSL
# Assay: MST
binder,measurement,value
B1,Kd,1340 nM
